The source of these data is patent publication US20220127642A1, “CONTROLLABLE GENOME EDITING SYSTEM” (APPLIED STEMCELL, INC., priority 2019, published 2022).

The subject of this data set is sgRNA target sequence in pCAG-EGxxFP plasmid, HEK293T cells. Nature of the data set: EGxxFP assay of candidate SaCas9 constructs (reconstituted EGFP expression). It is filed as cell-based. The following applies: tetracycline aptamer and conditional exon inserted in position 2 and 8; FIG. 9. Here is the method: The activity of candidate SaCas9 genes were then tested in an EGxxFP assay as described by Mashiko D et al. (see Sci Rep (2013) 3:3355). In short, the pCAG-EGxxFP plasmid containing 5′ and 3′ EGFP fragments that shares 482 bp under ubiquitous CAG promoter was prepared. An approximately 500 bp region containing the sgRNA target sequence was placed between EGFP fragments of pCAG-EGxxFP plasmid. The pCAG-EGxxFP plasmid was cotransfected with the candidate SaCas9 construct and sgRNA into HEK293T cells. When the candidate SaCas9 gene is properly transcribed and spliced, the target sequence in the EGxxFT gene was digested by sgRNA guided SaCas9 protein, the homologous dependent repair took place and reconstituted the EGFP expression.

Positions count from the first letter of the chain named. Entries after “also recorded” stand apart in the source; their conditions may differ.

B1: M2: tetracycline aptamer domain M2 (SEQ ID NO: 16) controlling splicing of a conditional exon in SaCas9 gene (nucleic acid)
chain: TTTCAGGCGCTAAAACATACCAGATGAAAGTCTGGAGAGGTGAAGAATACGACCACCTAGCGCCTGAAA
modifications: listed as DNA, chemistry not fully specified
B1: the “regulating the expression of SaCas9 (EGxxFP assay)” value is “worked well; also recorded: performed the best”.

B2: M3: tetracycline aptamer domain M3 (SEQ ID NO: 18) controlling splicing of a conditional exon in SaCas9 gene (nucleic acid)
chain: B1 chain with T11C, A59G
modifications: listed as DNA, chemistry not fully specified
For B2, the “regulating the expression of SaCas9 (EGxxFP assay)” value is “worked well”.
